Measured values as given in patent US20200299373A1.

Assays:
[1] = biological target: recombinant human FAM19A5 protein (His-tagged) (human) (UniProt Q7Z5A7); test: ELISA on N'-Term His FAM19A5, fit of the titration (OD 492 nm); R2 printed -0.2016
[2] = biological target: recombinant human FAM19A5 protein (His-tagged) (human) (UniProt Q7Z5A7); test: ELISA on N'-Term His FAM19A5, fit of the titration; poor fit, R2 printed -0.2016
[3] = biological target: recombinant human FAM19A5 protein (His-tagged) (human) (UniProt Q7Z5A7); test: two-site sandwich ELISA; capture antibody 13B4; S/N = O.D. at 10 ng/mL antigen / O.D. at 0 ng/mL; grey cell; cells 10 and 0 under recheck
[4] = biological target: recombinant human FAM19A5 protein (His-tagged) (human) (UniProt Q7Z5A7); test: ELISA, His-FAM19A5 (positive control) coated on the plate, absorbance at 492 nm
[5] = biological target: recombinant human FAM19A5 protein (His-tagged) (human) (UniProt Q7Z5A7); test: two-site sandwich ELISA; capture antibody 13B4; biotinylated detection antibody 2-13; antigen in ng/mL
[6] = biological target: recombinant human FAM19A5 protein (His-tagged) (human) (UniProt Q7Z5A7); test: two-site sandwich ELISA; capture antibody P2-A03; S/N = O.D. at 10 ng/mL antigen / O.D. at 0 ng/mL; O.D. in column 0 printed 0.39
[7] = biological target: recombinant human FAM19A5 protein (His-tagged) (human) (UniProt Q7Z5A7); test: ELISA on N'-Term His FAM19A5, fit of the titration (OD 492 nm); R2 printed 0.9303
[8] = biological target: recombinant human FAM19A5 protein (His-tagged) (human) (UniProt Q7Z5A7); test: two-site sandwich ELISA; capture antibody 1-65; S/N = O.D. at 10 ng/mL antigen / O.D. at 0 ng/mL; O.D. in column 0 printed 0.44
[9] = biological target: recombinant human FAM19A5 protein (His-tagged) (human) (UniProt Q7Z5A7); test: two-site sandwich ELISA; capture antibody P2-F11; S/N = O.D. at 10 ng/mL antigen / O.D. at 0 ng/mL; O.D. in column 0 printed 0.4
[10] = biological target: recombinant human FAM19A5 protein (His-tagged) (human) (UniProt Q7Z5A7); test: two-site sandwich ELISA; capture antibody P2-A03; biotinylated detection antibody 2-13; antigen in ng/mL
[11] = biological target: recombinant human FAM19A5 protein (His-tagged) (human) (UniProt Q7Z5A7); test: ELISA on N'-Term His FAM19A5, fit of the titration; R2 printed 0.9303; the text gives about 2.77 nM for 2-13, which on the sheet stands under 13F7
[12] = biological target: recombinant human FAM19A5 protein (His-tagged) (human) (UniProt Q7Z5A7); test: ELISA on coated FAM19A5, as in Example 6
[13] = biological target: recombinant human FAM19A5 protein (His-tagged) (human) (UniProt Q7Z5A7); test: two-site sandwich ELISA; capture antibody P2-F11; biotinylated detection antibody 2-13; antigen in ng/mL
[14] = biological target: recombinant human FAM19A5 protein (His-tagged) (human) (UniProt Q7Z5A7); test: two-site sandwich ELISA; capture antibody 1-65; biotinylated detection antibody 2-13; antigen in ng/mL
[15] = biological target: recombinant human FAM19A5 protein (His-tagged) (human) (UniProt Q7Z5A7); test: two-site sandwich ELISA; capture antibody 3-2; S/N = O.D. at 10 ng/mL antigen / O.D. at 0 ng/mL; O.D. in column 0 printed 0.38
[16] = biological target: recombinant human FAM19A5 protein (His-tagged) (human) (UniProt Q7Z5A7); test: two-site sandwich ELISA; capture antibody 3-2; biotinylated detection antibody 2-13; antigen in ng/mL
[17] = biological target: recombinant human FAM19A5 protein (His-tagged) (human) (UniProt Q7Z5A7); test: ELISA on N'-Term His FAM19A5, fit of the titration; R2 printed 0.9813
[18] = biological target: recombinant human FAM19A5 protein (His-tagged) (human) (UniProt Q7Z5A7); test: ELISA on N'-Term His FAM19A5, fit of the titration (OD 492 nm); R2 printed 0.9813
[19] = biological target: recombinant human FAM19A5 protein (His-tagged) (human) (UniProt Q7Z5A7); test: ELISA on N'-Term His FAM19A5, fit of the titration (OD 492 nm); R2 printed 0.9329
[20] = biological target: recombinant human FAM19A5 protein (His-tagged) (human) (UniProt Q7Z5A7); test: ELISA on N'-Term His FAM19A5, fit of the titration; R2 printed 0.9329
[21] = biological target: recombinant human FAM19A5 protein (His-tagged) (human) (UniProt Q7Z5A7); test: ELISA on N'-Term His FAM19A5, fit of the titration; R2 printed 0.8823
[22] = biological target: recombinant human FAM19A5 protein (His-tagged) (human) (UniProt Q7Z5A7); test: two-site sandwich ELISA; capture antibody P2-A03; S/N = O.D. at 10 ng/mL antigen / O.D. at 0 ng/mL; O.D. in column 0 printed 0.14
[23] = biological target: recombinant human FAM19A5 protein (His-tagged) (human) (UniProt Q7Z5A7); test: two-site sandwich ELISA; capture antibody 1-65; biotinylated detection antibody 13B4; antigen in ng/mL
[24] = biological target: recombinant human FAM19A5 protein (His-tagged) (human) (UniProt Q7Z5A7); test: two-site sandwich ELISA; capture antibody 2-13; biotinylated detection antibody 13B4; antigen in ng/mL
[25] = biological target: recombinant human FAM19A5 protein (His-tagged) (human) (UniProt Q7Z5A7); test: two-site sandwich ELISA; capture antibody 1-65; S/N = O.D. at 10 ng/mL antigen / O.D. at 0 ng/mL; O.D. in column 0 printed 0.12
[26] = biological target: recombinant human FAM19A5 protein (His-tagged) (human) (UniProt Q7Z5A7); test: two-site sandwich ELISA; capture antibody 3-2; biotinylated detection antibody 13B4; antigen in ng/mL
[27] = biological target: recombinant human FAM19A5 protein (His-tagged) (human) (UniProt Q7Z5A7); test: two-site sandwich ELISA; capture antibody 2-13; S/N = O.D. at 10 ng/mL antigen / O.D. at 0 ng/mL; O.D. in column 0 printed 0.21
[28] = biological target: recombinant human FAM19A5 protein (His-tagged) (human) (UniProt Q7Z5A7); test: two-site sandwich ELISA; capture antibody P2-A03; biotinylated detection antibody 13B4; antigen in ng/mL
[29] = biological target: recombinant human FAM19A5 protein (His-tagged) (human) (UniProt Q7Z5A7); test: two-site sandwich ELISA; capture antibody P2-F11; S/N = O.D. at 10 ng/mL antigen / O.D. at 0 ng/mL; O.D. in column 0 printed 0.15
[30] = biological target: recombinant human FAM19A5 protein (His-tagged) (human) (UniProt Q7Z5A7); test: two-site sandwich ELISA; capture antibody P2-F11; biotinylated detection antibody 13B4; antigen in ng/mL
[31] = biological target: recombinant human FAM19A5 protein (His-tagged) (human) (UniProt Q7Z5A7); test: ELISA on N'-Term His FAM19A5, fit of the titration (OD 492 nm); R2 printed 0.8823
[32] = biological target: recombinant human FAM19A5 protein (His-tagged) (human) (UniProt Q7Z5A7); test: two-site sandwich ELISA; capture antibody 3-2; S/N = O.D. at 10 ng/mL antigen / O.D. at 0 ng/mL; O.D. in column 0 printed 0.13
[33] = biological target: recombinant human FAM19A5 protein (His-tagged) (human) (UniProt Q7Z5A7); test: ELISA on N'-Term His FAM19A5, fit of the titration (OD 492 nm); R2 printed 0.1299

B1: P1-A08 (antibody, V domains shown)
VH: QSLEESGGRLVTPGTPLTLTCTASGFSLSTYYMSWVRQAPGKGLEWIGIVYPSGTTYYANWAKGRFTISTASTTVDLMITSPTTEDTATYFCARGDSFGYGLWGPGTLVTVSS
VL: ELVLTQSPSVQVNLGQTVSLTCTADTLSRSYASWYQQKPGQAPVLLIYRDTSRPSGVPDRFSGSSSGNTATLTISGAQAGDEADYYCATSDGSGSNYQYVFGGGTQLTVTR
- Bmax [1]: 0.479
- Kd [2]: 6.95 nM

B2: anti-FAM19A5 antibody 2-13 (antibody, V domains shown)
VH: AVTLDESGGGLQTPGGALSLVCKASGFTFSSHGMFWVRQTPGKGLEYVAEITNDGSGTNYGSAVKGRATISRDNGQSTVRLQLNNLRAEDTGTYFCARSTYECPGGFSCWGDTGQIDAWGHGTEVIVSS
VL: ALTQPSSVSANPGETVKITCSGGSYSYGWFQQKSPGSALVTVIYWDDERPSDIPSRFSGALSGSTNTLTITGVQADDEAVYFCGTEDISGTAGVFGAGTTLTVL
- S/N [3]: 1.1
- O.D. [4]: 3.6
- O.D., antigen 100 [5]: 1.48
- S/N [6]: 2.7
- Bmax [7]: 2.41
- S/N [8]: 4.1
- S/N [9]: 4.8
- O.D., antigen 100 [10]: 1.88
- O.D., antigen column 10 [10]: 1.07
- Kd [11]: 1.96 nM
- Kd [12]: 2.77 nM
- O.D., antigen 100 [13]: 1.94
- O.D., antigen column 10 [13]: 1.91
- O.D., antigen 100 [14]: 2.02
- O.D., antigen column 10 [14]: 1.8
- S/N [15]: 5.1
- O.D., antigen 100 [16]: 2.01
- O.D., antigen column 10 [16]: 1.97

B3: P1-A03 (antibody, V domains shown)
VH: QSVEESGGRLVTPGTPLTLTCTVSGFSLSSDYMSWVRQAPGEGLEWIGIIYPSTTTYYASWAKGRFTISKTSSTTVELKMTSLTTEDTATYFCARGSNWSSGMNLWGPGTLVTVSS
VL: ELVMTQTPPSLSASVGETVRIRCLASEDIYSGISWYQQKPEKPPTLLISGASNLESGVPPRFSGSGSGTDYTLTIGGVQAEDAATYYCLGGYSYSSTGLTFGAGTNVEIKR
- Kd [17]: 7.5 nM
- Bmax [18]: 2.45

B4: 13F7 (antibody, V domains shown)
VH: QVQLQEWGAGLLKPSETLSLTCAINAESFNGYSWTWIRQTPGKGLEWIGEISHFGSANYNPSLKSRATISADKSKNQFSLKLTSVTAVDTAVYYCARALRGTYSRFYYGMDVWGQGTTVTVSS
VL: DIVMTQTPLSLPVAPGEPASISCRSSQSLLHSNGYNYLDWYVQKPGQPPQLLIYLGSNRASGVPDRFSGSGSGTDFTLKISRVEAEDVGVYYCMQARQTPLTFGGGTKVEIKR
- Bmax [19]: 3.04
- Kd [20]: 2.77 nM

B5: anti-FAM19A5 antibody 13B4 (antibody, V domains shown)
VH: QVQLQESGPGLVKPSGTLSLNCAVSGGSISSSNWWSWVRQPPGKGLEWIGEIYHGGTTNYNPSLKGRVTMSVDKTKNQFSLRLSSVTAVDTAVYYCARWQLVGGLDVWGQGTTVTVSS
VL: SYELTQPLSVSVSPGQTASITCSGDKLGNVYASWYQQKPGQSPTLVIYQDNKRPSGIPERFSGSNSGKTATLTISGTQALDEADYYCQAWDSSTAVFGGGTKLTVLR
modifications: Biotinylated when used as detection antibody in FIG. 6B.
- Kd [21]: 1.06 nM
- S/N [22]: 1.1
- O.D., antigen 100 [23]: 0.12
- O.D., antigen column 10 [23]: 0.12
- O.D., antigen 100 [24]: 1.92
- O.D., antigen column 10 [24]: 0.65
- S/N [25]: 1
- O.D., antigen 100 [26]: 1.7
- O.D., antigen column 10 [26]: 0.3
- S/N [27]: 3.1
- O.D., antigen 100 [28]: 0.15
- O.D., antigen column 10 [28]: 0.16
- S/N [29]: 1.1
- O.D., antigen 100 [30]: 0.14
- O.D., antigen column 10 [30]: 0.16
- Bmax [31]: 2.84
- S/N [32]: 2.3

B6: P1-F02 (antibody, V domains shown)
VH: QSLEESGGRLVTPGTPLTLTCTASGFSLSNYYMGWVRQAPGEGLEWIGIIYASGSTYYASWAKGRFTISKTSTTVDLKMTSLTTEDTATYFCARIDIGVGDYGWAYDRLDLWGQGTLVTVSS
VL: ELDMTQTPPSLSASVGETVRIRCLASEDIYSGISWYQQKPGKPPTLLIYGASNLESGVPPRFSGSGSGTDYTLTIGGVQAEDAATYYCLGGYSYSSITFGAGTNVEIKR
- Bmax [33]: 0.172
